What was measured:
Ssa1-WT = biological target: T1, Ssa1-WT (yeast, UniProt P10591 1-642); assay: ELISA; Ssa1 (200 nM) immobilised in microtiter wells; dilutions of Sis1-WT or mutants (0-50 nM); bound Sis1 detected with an anti-Sis1 antibody; no client; conditions: both partners purified
T1 construct: Ssa1, yeast Hsp70; Cloned into pPROEx-Htb; cleavage of the tag follows from 'the remaining purification steps were analogous to those for Sis1-WT'; also called Hsp70; source: E. coli Rosetta 2(DE3), purified (Talon resin, steps analogous to Sis1)

full-length Rnq1 = biological target: T2, full-length Rnq1 (yeast, UniProt P25367 1-405); assay: ELISA; denatured substrate (FL Rnq1 or ΔN Rnq1 400 ng, luciferase 100 ng) immobilised in microtiter wells; dilutions of Sis1-WT or mutants (0-20 or 0-25 nM) in PBS-T with 0.5% BSA, overnight at room temperature; retained Sis1 detected with an anti-Sis1 antibody; conditions: both partners purified
T2 construct: also called FL Rnq1; Rnq1-WT
T2 sequence (looked up): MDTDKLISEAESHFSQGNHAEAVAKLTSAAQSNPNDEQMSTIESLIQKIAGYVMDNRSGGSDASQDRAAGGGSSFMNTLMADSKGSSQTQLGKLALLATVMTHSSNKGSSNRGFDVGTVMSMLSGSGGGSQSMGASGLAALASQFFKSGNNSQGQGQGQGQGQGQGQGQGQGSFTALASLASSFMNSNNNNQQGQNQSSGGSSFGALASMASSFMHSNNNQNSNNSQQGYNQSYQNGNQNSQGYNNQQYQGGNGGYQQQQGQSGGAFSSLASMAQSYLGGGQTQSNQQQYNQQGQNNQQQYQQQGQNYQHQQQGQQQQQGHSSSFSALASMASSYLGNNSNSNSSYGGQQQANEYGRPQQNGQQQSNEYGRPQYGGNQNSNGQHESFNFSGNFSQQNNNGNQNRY

T1 sequence (P10591 whole entry): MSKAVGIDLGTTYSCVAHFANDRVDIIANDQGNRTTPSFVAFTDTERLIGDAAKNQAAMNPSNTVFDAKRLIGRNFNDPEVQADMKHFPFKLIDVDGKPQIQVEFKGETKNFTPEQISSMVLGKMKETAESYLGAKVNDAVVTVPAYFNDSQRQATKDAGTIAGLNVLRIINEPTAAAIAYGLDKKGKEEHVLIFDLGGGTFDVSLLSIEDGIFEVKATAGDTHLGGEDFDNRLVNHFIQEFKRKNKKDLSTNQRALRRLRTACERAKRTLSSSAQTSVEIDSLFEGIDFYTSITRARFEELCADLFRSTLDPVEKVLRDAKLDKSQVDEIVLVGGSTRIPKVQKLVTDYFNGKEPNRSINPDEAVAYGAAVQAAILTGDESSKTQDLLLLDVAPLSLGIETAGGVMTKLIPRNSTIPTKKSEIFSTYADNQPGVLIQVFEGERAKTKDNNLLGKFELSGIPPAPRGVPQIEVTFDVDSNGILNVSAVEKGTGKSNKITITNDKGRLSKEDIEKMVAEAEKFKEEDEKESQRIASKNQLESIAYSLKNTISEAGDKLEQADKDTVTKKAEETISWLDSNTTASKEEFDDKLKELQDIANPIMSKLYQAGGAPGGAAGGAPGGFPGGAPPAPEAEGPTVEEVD

B1: Sis1-E53A (natural protein, yeast, UniProt P25294 1-352, looked up)
chain: MVKETKLYDLLGVSPSANEQELKKGYRKAALKYHPDKPTGDTEKFKEISEAFAILNDPQKREIYDQYGLEAARSGGPSFGPGGPGGAGGAGGFPGGAGGFSGGHAFSNEDAFNIFSQFFGGSSPFGGADDSGFSFSSYPSGGGAGMGGMPGGMGGMHGGMGGMPGGFRSASSSPTYPEEETVQVNLPVSLEDLFVGKKKSFKIGRKGPHGASEKTQIDIQLKPGWKAGTKITYKNQGDYNPQTGRRKTLQFVIQEKSHPNFKRDGDDLIYTLPLSFKESLLGFSKTIQTIDGRTLPLSRVQPVQPSQTSTYPGQGMPTPKNPSQRGNLIVKYKVDYPISLNDAQKRAIDENF
notes: Sis1, essential yeast DNAJ (Hsp40) protein, with the J-domain mutation E53A; also called homologous to DNAJB6-E54A; LGMDD1 J-domain mutant; source: E. coli Lemo21(DE3), purified (Talon cobalt resin, TEV cleavage, second Talon pass)
B1: binds (Ssa1-WT); binds (full-length Rnq1).

B2: Sis1-E53K (natural protein, yeast, UniProt P25294 1-352, looked up)
chain: MVKETKLYDLLGVSPSANEQELKKGYRKAALKYHPDKPTGDTEKFKEISEAFKILNDPQKREIYDQYGLEAARSGGPSFGPGGPGGAGGAGGFPGGAGGFSGGHAFSNEDAFNIFSQFFGGSSPFGGADDSGFSFSSYPSGGGAGMGGMPGGMGGMHGGMGGMPGGFRSASSSPTYPEEETVQVNLPVSLEDLFVGKKKSFKIGRKGPHGASEKTQIDIQLKPGWKAGTKITYKNQGDYNPQTGRRKTLQFVIQEKSHPNFKRDGDDLIYTLPLSFKESLLGFSKTIQTIDGRTLPLSRVQPVQPSQTSTYPGQGMPTPKNPSQRGNLIVKYKVDYPISLNDAQKRAIDENF
notes: Sis1, essential yeast DNAJ (Hsp40) protein, with the J-domain mutation E53K; also called homologous to DNAJB6-E54K; LGMDD1 J-domain mutant; source: E. coli Lemo21(DE3), purified (Talon cobalt resin, TEV cleavage, second Talon pass)
B2: binds (Ssa1-WT); binds (full-length Rnq1).

B3: Sis1-S49V (natural protein, yeast, UniProt P25294 1-352, looked up)
chain: MVKETKLYDLLGVSPSANEQELKKGYRKAALKYHPDKPTGDTEKFKEIVEAFEILNDPQKREIYDQYGLEAARSGGPSFGPGGPGGAGGAGGFPGGAGGFSGGHAFSNEDAFNIFSQFFGGSSPFGGADDSGFSFSSYPSGGGAGMGGMPGGMGGMHGGMGGMPGGFRSASSSPTYPEEETVQVNLPVSLEDLFVGKKKSFKIGRKGPHGASEKTQIDIQLKPGWKAGTKITYKNQGDYNPQTGRRKTLQFVIQEKSHPNFKRDGDDLIYTLPLSFKESLLGFSKTIQTIDGRTLPLSRVQPVQPSQTSTYPGQGMPTPKNPSQRGNLIVKYKVDYPISLNDAQKRAIDENF
notes: Sis1, essential yeast DNAJ (Hsp40) protein, with the J-domain mutation S49V; also called homologous to DNAJB6-A50V; LGMDD1 J-domain mutant; source: E. coli Lemo21(DE3), purified (Talon cobalt resin, TEV cleavage, second Talon pass)
B3: binds (Ssa1-WT); binds (full-length Rnq1).

From publication PMC12756002, “Mutations in Hsp40 co-chaperone change the canonical interdomain interactions stimulating LGMDD1 myopathy” (The Journal of Biological Chemistry, 2025)
